Experimental data taken from article PMC6615629, “Hsp70-nucleotide exchange factor (NEF) Fes1 has non-NEF roles in degradation of gluconeogenic enzymes and cell wall integrity” (PLoS Genetics, 2019).

Legend:
Conditions in all cases: both partners purified
His6-Fbp1 P2A = molecular target: T1, His6-Fbp1 P2A (yeast (S. cerevisiae), UniProt P09201 1-348, P2A); experiment: pull-down; His6-Fbp1 (wild type or mutant) pulled down on Talon metal affinity resin; reactions with two or all three proteins; 6 μg each of His6-Fbp1 (1.6 μM), Hsp70 (0.9 μM) and GST-Fes1 (1.09 μM), with or without ATP, ADP or AMP (2.5 mM); 50 mM Tris-HCl pH 7.5, 150 mM NaCl, 2% glycerol, 5 mM MgCl2; 30 min at 4°C; washed with 5 mM imidazole, eluted with 250 mM imidazole; stained SDS-PAGE gels, bands quantified …
T1 construct: Fbp1, yeast gluconeogenic enzyme, P2A; the initiator methionine is counted as residue 1; source: E. coli expression, purified; not shown: His6, N-terminal, kept
T1 sequence (looked up): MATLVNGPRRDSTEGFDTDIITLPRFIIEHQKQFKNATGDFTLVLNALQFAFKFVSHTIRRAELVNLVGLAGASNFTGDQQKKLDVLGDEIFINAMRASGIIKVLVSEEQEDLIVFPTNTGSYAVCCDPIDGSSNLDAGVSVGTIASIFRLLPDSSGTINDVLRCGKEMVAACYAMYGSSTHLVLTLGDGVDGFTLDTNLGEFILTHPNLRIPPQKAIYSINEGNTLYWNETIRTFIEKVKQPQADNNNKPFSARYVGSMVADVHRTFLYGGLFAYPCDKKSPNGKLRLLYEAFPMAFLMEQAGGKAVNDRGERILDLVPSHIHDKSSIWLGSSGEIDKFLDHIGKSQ

Ssa2 = molecular target: T2, Ssa2 (yeast (S. cerevisiae), UniProt P10592 1-639); experiment: pull-down; GST-Fes1 (wild type or mutant, or GST alone) pulled down on glutathione resin; reactions with two or all three proteins; 6 μg each of His6-Fbp1 (1.6 μM), Hsp70 (0.9 μM) and GST-Fes1 (1.09 μM), with or without ATP, ADP or AMP (2.5 mM); 50 mM Tris-HCl pH 7.5, 150 mM NaCl, 2% glycerol, 5 mM MgCl2; 30 min at 4°C; stained SDS-PAGE gels
T2 construct: Ssa2, yeast cytosolic Hsp70; non-tagged; also called Hsp70; source: E. coli Rosetta 2(DE3), purified as described [51]
T2 sequence (P10592 whole entry): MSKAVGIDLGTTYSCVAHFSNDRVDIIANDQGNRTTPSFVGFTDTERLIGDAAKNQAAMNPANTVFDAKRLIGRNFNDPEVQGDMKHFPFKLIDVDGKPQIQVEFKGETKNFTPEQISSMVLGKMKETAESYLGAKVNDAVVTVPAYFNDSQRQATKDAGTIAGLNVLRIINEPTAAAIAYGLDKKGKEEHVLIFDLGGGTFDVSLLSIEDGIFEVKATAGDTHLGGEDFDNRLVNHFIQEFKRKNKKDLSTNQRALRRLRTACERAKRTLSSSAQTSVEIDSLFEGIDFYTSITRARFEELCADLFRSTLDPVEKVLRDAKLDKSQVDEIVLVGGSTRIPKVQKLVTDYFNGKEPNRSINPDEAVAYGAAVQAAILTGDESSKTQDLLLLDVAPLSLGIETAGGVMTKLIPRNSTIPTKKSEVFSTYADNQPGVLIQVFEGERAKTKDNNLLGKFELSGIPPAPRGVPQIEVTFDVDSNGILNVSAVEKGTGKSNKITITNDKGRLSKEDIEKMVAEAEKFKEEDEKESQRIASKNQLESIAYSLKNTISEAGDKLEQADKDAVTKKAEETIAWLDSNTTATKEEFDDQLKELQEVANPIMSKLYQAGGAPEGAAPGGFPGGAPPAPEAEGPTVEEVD

Ssa1 = molecular target: T3, Ssa1 (yeast (S. cerevisiae), UniProt P10591 1-642); experiment: as above
T3 construct: Ssa1, yeast cytosolic Hsp70; non-tagged; also called Hsp70; source: E. coli Rosetta 2(DE3), purified as described [51]
T3 sequence (P10591 whole entry): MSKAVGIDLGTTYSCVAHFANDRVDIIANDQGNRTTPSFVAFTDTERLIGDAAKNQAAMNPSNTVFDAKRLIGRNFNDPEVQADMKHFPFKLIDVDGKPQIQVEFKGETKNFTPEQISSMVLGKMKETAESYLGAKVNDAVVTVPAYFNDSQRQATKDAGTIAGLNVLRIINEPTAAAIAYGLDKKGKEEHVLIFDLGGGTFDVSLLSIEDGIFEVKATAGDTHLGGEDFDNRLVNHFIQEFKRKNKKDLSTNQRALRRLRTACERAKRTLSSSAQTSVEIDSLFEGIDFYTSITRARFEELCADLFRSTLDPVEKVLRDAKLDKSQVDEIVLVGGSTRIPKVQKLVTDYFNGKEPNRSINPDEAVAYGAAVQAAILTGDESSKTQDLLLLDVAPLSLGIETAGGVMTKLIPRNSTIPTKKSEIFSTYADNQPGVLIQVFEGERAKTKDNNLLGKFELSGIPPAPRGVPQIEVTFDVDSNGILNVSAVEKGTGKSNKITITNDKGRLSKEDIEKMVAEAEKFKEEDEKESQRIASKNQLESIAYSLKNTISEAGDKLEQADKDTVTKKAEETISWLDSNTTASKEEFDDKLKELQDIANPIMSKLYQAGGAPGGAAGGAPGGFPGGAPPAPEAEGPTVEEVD

Measured: binding result

B1: GST-Fes1 (natural protein, yeast (S. cerevisiae), UniProt P38260 1-290, looked up)
chain: MEKLLQWSIANSQGDKEAMARAGQPDPKLLQQLFGGGGPDDPTLMKESMAVIMNPEVDLETKLVAFDNFEMLIENLDNANNIENLKLWEPLLDVLVQTKDEELRAAALSIIGTAVQNNLDSQNNFMKYDNGLRSLIEIASDKTKPLDVRTKAFYALSNLIRNHKDISEKFFKLNGLDCIAPVLSDNTAKPKLKMRAIALLTAYLSSVKIDENIISVLRKDGVIESTIECLSDESNLNIIDRVLSFLSHLISSGIKFNEQELHKLNEGYKHIEPLKDRLNEDDYLAVKYVL
notes: Fes1, yeast Hsp70 nucleotide exchange factor; also called wild type GST-Fes1; source: E. coli expression, purified as described [15]; not shown: GST, N-terminal, kept
binds: His6-Fbp1 P2A | Ssa2 | Ssa1
